± gives the uncertainty stated by the source.
Test: amyloid nucleation score (Sup35N fusion, yeast selection) (log enrichment); library NNK3; higher = more nucleation; inactive = no reads after selection
How it was run: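 For the nucleation score, DiMSum gave the log enrichment of output over input reads, centred on the mode score of non-aggregating sequences. Psi-negative yeast expressing Sup35N fused to peptides of 20 random codons were induced with 100 μM copper sulfate for 24 hours and grown 7 days at 30°C on medium lacking adenine and uracil. Input and output plasmid inserts were Illumina-sequenced, and sequences with under 100 input reads were excluded.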

Row | Substance | amyloid nucleation score
1 | VLKKGGVFVWFAWECNTCSD | inactive
2 | STRMRYICCSCLL | 2.99 ± 0.078
3 | VNFFGR | inactive
4 | LLSIYCY | inactive
5 | FLLMLFVSGVRLFDYRRFWH | inactive
6 | AGGCDRYVHPRFLDKRSSWS | inactive
7 | VVLRTSLCVMWINVRHLCDP | inactive
8 | IPFFIGCHNKCRVYLWVAVG | inactive
9 | CWAYVMRT | inactive
10 | VTGDWTGYMPLCLISVAFLS | 1.5 ± 0.083
11 | NVAAFGVAMPGMSV | inactive
12 | KGCPVASMAQWNSCMCYVLV | 1.08 ± 0.12
13 | VLCNYGCGIDFAV | 0.181 ± 0.53
14 | CNSYTYVEGSNYNGSSQGLD | inactive
15 | QGISQPRHCFY | inactive
16 | NCRRRKCVTGGGRS | 1.16 ± 0.17
17 | YIVSSSD | inactive
18 | VITLYVVGVYWGGNDIGDFM | 0.976 ± 0.19
19 | LGTTSYRV | inactive
20 | ASVACLAFP | inactive
21 | KLEREMADNDVARGGQLVLG | inactive
22 | WIMISKSSMPMTPDAVQAMG | inactive
23 | KLLLYMMYNRYLPM | 0.528 ± 0.32
24 | MVMPGMFGSLRREWHSFFRM | inactive

Row | Substance | amyloid nucleation score
25 | LDSGFICMTELIGVVPH | inactive
26 | ESRSRLRNGTLFNCVIN | -0.081 ± 0.5
27 | NFSIRCTWLVVNNAVDLRDN | 2.94 ± 0.049
28 | KCRDLIRNVVPNSAIELDPS | inactive
29 | MESDCQRDHNFIRIKIKIGE | 1.65 ± 0.09
30 | FDVRCLWYCQK | 1.33 ± 0.17
31 | SPVVIRFTLLIKCRWLVVWI | inactive
32 | VWVLYGKITVPSPKARMGKT | -0.083 ± 1.1
33 | KYFRNLTVRKTKWE | inactive
34 | GVRLNEIGRIMIRQACGIWE | inactive
35 | FLSFSFYLVYRRKSVRFQ | inactive
36 | YTGSMAGSTYLTGKLSLDDR | inactive
37 | RGGRYDFMCDTCSLIVFASV | -0.645 ± 1.1
38 | EVFSDVY | inactive
39 | TSKLVCPNGVMHLRDDRVGC | inactive
40 | FDERSF | inactive
41 | LSLHEGWSVNCVFCLLLTVW | 2.42 ± 0.077
42 | GWNILLNLNIEYSTLYIVNL | 2.44 ± 0.06
43 | KWFMVA | inactive
44 | PLGLAILFSSPSTFLYFNFD | inactive
45 | YYNAGAGKRRYNRSVRGSLK | inactive
46 | KKISAQESEFVGSPFEYGGG | inactive
47 | RNKVHRNG | inactive
48 | NVALRAGSREG | inactive

Row | Substance | amyloid nucleation score
49 | SLEHHQIIYVLARPACL | inactive
50 | VLRVDRGGTIMRYPCLG | inactive
51 | YLVFNQY | 1.17 ± 0.086
52 | RIPKDEYTNPGRA | inactive
53 | HWGTMNGSPSFFPITVRCGG | inactive
54 | TDKRSGVKLNLYFITNTIFA | 2.17 ± 0.06
55 | NDLSDSMRVR | inactive
56 | VMKSYDWEDWSSDPFIFRYV | inactive
57 | ESRSFCLNCQGWVSSEA | inactive
58 | EDQLL | -0.077 ± 0.54
59 | YPGFSAGCDVWQKFNYGVMT | inactive
60 | NDFSPVRWTVLDTDDPK | inactive
61 | PEAVTCCNQKMTPVFIIGHP | inactive
62 | SEWKNTRNTHVLWYTSDSAT | inactive
63 | ILGAILLSMFDSLYLGGEWR | inactive
64 | IVYREVCVFVNM | 1.78 ± 0.063
65 | YLVLKDTRYAYTLLRSMLSA | inactive
66 | DGSIGRGVDRRLTKSSQPAL | inactive
67 | HLDQNLWPKQKQAHTLRTKW | inactive
68 | IYFDVV | inactive
69 | RGYGAAHQRRCQRIRNYYKY | inactive
70 | FFSTQAFLDLAHTRFVNPLG | inactive
71 | SCYDVFSFYPSPFCLTNSVA | inactive
72 | YHVMV | inactive

Row | Substance | amyloid nucleation score
73 | KFVVDARFVTS | 1.33 ± 0.13
74 | LIICLYSTAGRGIRWSDSTA | inactive
75 | WVFLNRAQQHSNVLPSQGLV | inactive
76 | RDGSM | inactive
77 | FSHGFSIYRLKKT | inactive
78 | PWGPW | inactive
79 | ALKDGIFFFHA | inactive
80 | MSRGGYWSKVR | inactive
81 | HFNEEGAQ | -0.309 ± 1.1
82 | YENCSMYYSTTGIPAMCEIT | inactive
83 | IDVYRFRKGA | inactive
84 | SYSVIMNHMKRWNPGDTSKW | inactive
85 | WTSSVILRPSMCLLGWYMLV | inactive
86 | LFRTDFMQTLLCHTIQLLYP | inactive
87 | SYGLTHMSKAIGDHRVVIAT | inactive
88 | LAPFV | inactive
89 | RKNSDLTYSNSVNLTCACRT | 0.434 ± 0.18
90 | MNGNGRFLVERRMLGSKKSV | inactive
91 | ALVRGIVSTPDSRM | inactive
92 | YLQFIDENS | inactive
93 | VNFCFFFKLLRGRSGYHLSW | 2.15 ± 0.09
94 | ALESTMVWLSQRQGRFVHSL | -0.284 ± 0.7
95 | LAQMVNGRITDHYTLFRSRT | inactive
96 | NTLDDDFRISPDATVYSVYW | inactive

Row | Substance | amyloid nucleation score
97 | VIVRRSQFTELICLFYNFTM | inactive
98 | FYRFISAMFYDWDSWIICGN | 0.674 ± 0.12
99 | GYRLRQTSARYIAVEWSWKC | inactive
100 | FYVRVALRVSLLLWSGFTWV | inactive
101 | VIYLKTRWNSWCPAGGVLLC | inactive
102 | SYSSIVCLGIDYRQAFWCIR | 1.8 ± 0.077
103 | CNLRMCNGA | inactive
104 | CSLRPNSERTSVIYNALHVN | inactive
105 | YFVFKALRSIPNGLMLSLRG | inactive
106 | WCRCSFVVLHSVVVCSFGTR | -0.074 ± 0.69
107 | SVWFGEIRNMGLIEEENRDW | inactive
108 | WCCHRAFLYI | inactive
109 | VEQMLVFDTPLSYLVKQVKF | inactive
110 | GTMIRQLERELSHMREVTYI | inactive
111 | QHKKKIAF | inactive
112 | LSSWEIVSSLSHWNVYVIAR | inactive
113 | SFGYLSAPRFIVGKVSHLGC | inactive
114 | MYQMSTVKRRRVGGSNDMCV | inactive
115 | GKCLLYRFILILLHP | -0.155 ± 0.93
116 | FKGLVVMKGLLNMIGGGACH | 0.27 ± 0.4
117 | IWSMWIYCRNGHH | inactive
118 | FYSFFILSIGSSIPCLRSHM | inactive
119 | KARLLMWS | 0.181 ± 0.28

— the supplement of paper PMC12042874
